Here are results for five molecules from patent US20250340667A1, “Cancer Treatment comprising an anti-MSLN/CD137 antibody and a chemotherapeutic” (Merck Patent GmbH, priority 2022, published 2025).

One data set has as its target T1, CD137 (Homo sapiens, UniProt Q07011).
T1 construct: Clinical studies of both utomilumab and urelumab monotherapy were however suspended; host or cells: patients (endogenous CD137)
Particulars: monotherapy clinical studies, suspended; cited from earlier work.

The next data set has as its system JC breast cancer cells. In kind it is in vivo. Conditions: for tumor growth inhibition (TGI): FS122m 5 mg/kg ip Days 0, 2, 4; for complete tumor regression: number of mice with complete regression per group. As for the experimental part: (§1) The efficacy of the combination of an antibody molecule that binds MSLN and CD137 and a chemotherapeutic in enhancing an anti-cancer immune response compared to monotherapy with either the antibody molecule that binds MSLN and CD137 or the chemotherapeutic was assessed by studying the average tumour volume over time and prolonged survival in mouse tumour models. These mouse tumor models are described in more detail below.
(§2) CT26 cells were obtained from ATCC and cultured in RPMI media containing 2 mM L-glutamine, 10 mM HEPES, 1 mM sodium pyruvate, 4500 mg/L glucose, 1500 mg/L sodium bicarbonate, and 10% fetal bovine serum (FBS). JC cells were obtained from ATCC and were maintained in vitro as a monolayer culture at WuXi in RPMI-1640 supplemented with 10% heat-inactivated FBS. These tumor cell lines were individually maintained in vitro as monolayer cultures and grown at 37° C. in an atmosphere of 5% CO2. The cells were routinely sub-cultured twice weekly by TrypLE treatment. The cells growing in an exponential growth phase were harvested and counted for tumor inoculation. Wild-type BALB/c female mice were purchased from Charles River Laboratories, or from Lingchang Biological Technology Co. LTD. All mice were 8-12 weeks old at the start of studies and were housed and maintained as described below, under conditions that conform to The Guide for the Care and Use of Laboratory Animals, 8th Edition. All animal experiments were performed in accordance with EMD Serono Research Institutional (protocol 17-008, 20-005) and Wuxi AppTec Animal Care and Use Committee (IACUC) guidelines.
(§3) CT26 and JC tumor models were used to investigate the antitumor effect of a combination of an antibody molecule that binds MSLN and CD137 and a chemotherapeutic compared to monotherapy with the antibody molecule that binds MSLN and CD137 or the chemotherapeutic. Mice were treated with the anti-mMSLN-mCD137-huIgG1-LALA antibody molecule FS122m in combination with either of the two chemotherapeutics cisplatin or gemcitabine. For the CT26 model, female BALB/c mice were inoculated via subcutaneous (sc) injection in the right flank with 0.3×10^6 CT26 cells in 0.1 mL of PBS. Mice were randomized to treatment groups (n=10 mice/group) when the average tumor volume reached approximately 50-100 mm^3. For the JC model, female BALB/c mice were inoculated via sc injection at the right upper flank with JC tumor cells (5×10^6) in 0.1 mL of PBS. Treatments were started on day 14 after tumor inoculation when the average tumor size reached approximately 80 mm^3. FS122m and anti-HEL hIgG1 LALA isotype control were given as 5 mg/kg on the first, third and fifth day of treatment (Days 0, 2, and 4) via intraperitoneal (ip) injection. Cisplatin was given on Day 0 at 10 mg/kg via ip injection, and gemcitabine was given on Day 0 at 120 mg/kg via ip injection.
(§4) Mortality checks were performed once daily. Animals were checked daily for any effects of tumor growth and treatments on normal behavior such as mobility, food and water consumption (by looking only), eye/hair matting and any other abnormal effect as stated in the protocol. Body weights were recorded twice weekly and any mouse with a 20% loss of initial body weight loss was humanely sacrificed. Mice were humanely euthanized if their subcutaneous tumors reached a volume of 2500 mm^3.
(§5) Body weight was measured and recorded twice weekly until an endpoint was reached. Tumor sizes were measured twice per week in three dimensions using a caliper, and the volume was expressed in mm^3 using the formula: width×length×height×0.5236.
(§6) Differences in tumor growth between treatment groups were determined using two-way analysis of variance (ANOVA) and Tukey's Multiple Comparisons Test. The significance of survival was determined using Log-rank (Mantel-Cox) test. […]

The subject of a further data set is CT26 colon cancer cells. It counts as in vivo. Conditions: for median survival: isotype control 17 days; for complete tumor regression: number of mice with complete regression per group; for tumor growth inhibition (TGI): relative to the isotype control. As for the experimental part: as §1, §2, §3, §4, §5, §6
The target of another data set is T2, mouse MSLN (Mus musculus, UniProt Q61468).
T2 sequence (Q61468 36-600): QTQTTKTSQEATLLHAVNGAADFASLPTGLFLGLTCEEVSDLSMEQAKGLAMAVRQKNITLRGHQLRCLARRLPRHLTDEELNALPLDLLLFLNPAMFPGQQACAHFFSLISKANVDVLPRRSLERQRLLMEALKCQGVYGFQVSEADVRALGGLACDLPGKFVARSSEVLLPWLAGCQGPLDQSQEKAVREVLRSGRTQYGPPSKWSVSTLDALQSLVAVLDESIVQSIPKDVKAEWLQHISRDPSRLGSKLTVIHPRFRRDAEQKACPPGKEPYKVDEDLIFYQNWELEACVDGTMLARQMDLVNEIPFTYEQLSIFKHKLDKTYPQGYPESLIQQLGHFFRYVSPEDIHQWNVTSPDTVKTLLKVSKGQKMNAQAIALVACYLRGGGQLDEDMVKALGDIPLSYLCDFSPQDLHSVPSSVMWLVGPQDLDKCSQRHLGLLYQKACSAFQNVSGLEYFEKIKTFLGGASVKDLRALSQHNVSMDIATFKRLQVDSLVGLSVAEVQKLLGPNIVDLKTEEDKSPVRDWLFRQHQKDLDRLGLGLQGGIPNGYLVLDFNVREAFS
The data set is described as follows: Binding / cross-reactivity to mouse MSLN.

A further data set concerns the target mouse CD137 (Mus musculus, UniProt P20334). The data set can be described thus: Binding / cross-reactivity to mouse CD137.
Where [1] appears, read: gemcitabine combination study, Day 25, relative to the isotype control, gemcitabine 120 mg/kg ip Day 0.
[2] abbreviates: gemcitabine combination study, isotype control 27 days.
Setting [3] is: gemcitabine combination study, monotherapies Day 14, combination compared on Day 18, FS122m 5 mg/kg ip Days 0, 2, 4, gemcitabine 120 mg/kg ip Day 0.
Setting [4] is: cisplatin combination study, Day 22 post treatment initiation, compared with the isotype control, cisplatin 10 mg/kg ip Day 0.
[5] abbreviates: cisplatin combination study, isotype control 22 days.
Setting [6] is: cisplatin combination study, Day 17, FS122m 5 mg/kg ip Days 0, 2, 4, cisplatin 10 mg/kg ip Day 0.
The mark [7] stands for this setting: cisplatin combination study, FS122m 5 mg/kg ip Days 0, 2, 4, cisplatin 10 mg/kg ip Day 0.

Substitutions are numbered along the chain they refer to. Values joined by “and” are separate entries in the source; they are usually repeats but may differ in a detail not shown here. Equal entries are not always repeated. Where two headings read alike, the source gives them in different places.

Chain of mouse CD137 (P20334 24-256): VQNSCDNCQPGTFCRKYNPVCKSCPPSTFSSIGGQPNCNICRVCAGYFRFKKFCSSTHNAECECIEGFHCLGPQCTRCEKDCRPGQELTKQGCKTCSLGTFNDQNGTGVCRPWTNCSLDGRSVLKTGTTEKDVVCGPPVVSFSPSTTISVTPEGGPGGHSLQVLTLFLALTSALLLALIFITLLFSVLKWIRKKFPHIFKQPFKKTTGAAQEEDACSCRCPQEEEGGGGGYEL
T1 sequence (Q07011 24-255): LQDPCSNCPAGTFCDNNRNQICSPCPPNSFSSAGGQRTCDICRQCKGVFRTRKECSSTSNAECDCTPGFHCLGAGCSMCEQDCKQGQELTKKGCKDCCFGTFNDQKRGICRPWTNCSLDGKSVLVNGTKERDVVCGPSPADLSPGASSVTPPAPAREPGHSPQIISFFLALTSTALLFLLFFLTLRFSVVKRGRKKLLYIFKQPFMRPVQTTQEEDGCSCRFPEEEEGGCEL

Consider “urelumab: 1st generation CD137 agonist antibody”, for which the clinical toxicity result in the data set with CD137 is reported as “hepatotoxicity”.

For the molecule `Nc1ccn([C@@H]2O[C@H](CO)[C@@H](O)C2(F)F)c(=O)n1` [gemcitabine], the “tumor growth inhibition (TGI)” value stood at 47.8% in the data set on JC breast cancer cells (setting [1]) and 58.2% in the data set on CT26 colon cancer cells (setting [3]). Also, the values for the median survival in the data set on JC breast cancer cells (setting [2]) and with CT26 colon cancer cells (gemcitabine combination study) were 36 days and 22 days, respectively. The figures for the complete tumor regression entry in the data set on JC breast cancer cells (gemcitabine combination study) and in the data set on CT26 colon cancer cells (gemcitabine combination study) were “no complete tumor regression in 10 mice” and “no complete tumor regression in any of 9 mice”, respectively.

On to `N.N.[Cl][Pt][Cl]` [cisplatin], for which the “tumor growth inhibition (TGI)” value was 44.9% in the data set with JC breast cancer cells (setting [4]) and 77.8% in the data set with CT26 colon cancer cells (setting [6]). The median survival with JC breast cancer cells (setting [5]) is listed as 29 days; in the data set on CT26 colon cancer cells (setting [7]), 36.5 days. Moreover, the complete tumor regression result in the data set with JC breast cancer cells (cisplatin combination study) is on record as “no complete tumor regression in 10 mice”; in the data set on JC breast cancer cells (gemcitabine combination study), “no complete tumor regression in 10 mice”; with CT26 colon cancer cells (cisplatin combination study) it was “no complete tumor regression in 10 mice”; in the data set with CT26 colon cancer cells (gemcitabine combination study), “no complete tumor regression in 9 mice”.

B1: FS122m: mouse surrogate mAb2 of M9657 binding mouse MSLN and murine CD137, human IgG1 LALA; SEQ ID NOs 84 and 85 (antibody)
heavy: EVQLLESGGGLVQPGGSLRLSCAASGFTFSTYFMVWVRQAPGKGLEWVSMISPKSSNTYYADSVKGRFTISRDNSKNTLYLQMNSLRAEDTAVYYCARYHISPRFDYWGQGTLVTVSSASTKGPSVFPLAPSSKSTSGGTAALGCLVKDYFPEPVTVSWNSGALTSGVHTFPAVLQSSGLYSLSSVVTVPSSSLGTQTYICNVNHKPSNTKVDKKVEPKSCDKTHTCPPCPAPEAAGGPSVFLFPPKPKDTLMISRTPEVTCVVVDVSHEDPEVKFNWYVDGVEVHNAKTKPREEQYNSTYRVVSVLTVLHQDWLNGKEYKCKVSNKALPAPIEKTISKAKGQPREPQVYTLPPSRDEPYWSYVSLTCLVKGFYPSDIAVEWESNGQPENNYKTTPPVLDSDGSFFLYSKLTVMNYRWELGNVFSCSVMHEALHNHYTQKSLSLSPGK
light: EIVLTQSPGTLSLSPGERATLSCRASQSVSSSYLAWYQQKPGQAPRLLIYGASSRATGIPDRFSGSGSGTDFTLTISRLEPEDFAVYYCQQPFPFSFTFGQGTKVEIKRTVAAPSVFIFPPSDEQLKSGTASVVCLLNNFYPREAKVQWKVDNALQSGNSQESVTEQDSKDSTYSLSSTLTLSKADYEKHKVYACEVTHQGLSSPVTKSFNRGEC
modifications: FS122m (surrogate anti-mMSLN mCD137 Fcab G1-AA): Heavy chain AA (with LALA); Light chain AA
Regarding B1, in the data set with mouse MSLN (compared with binding affinity of M9657 for human MSLN), the “binding affinity for mouse MSLN” value is recorded as “similar”. In the data set with mouse CD137 (compared with binding affinity of M9657 for human CD137), the “binding affinity for mouse CD137” value was “similar”. In addition, the “tumor growth inhibition (TGI)” value with JC breast cancer cells (setting [4]) stood at 60.1%; in the data set on JC breast cancer cells (setting [1]), 45.8%; in the data set on CT26 colon cancer cells (setting [6]) it was 61.3%; in the data set on CT26 colon cancer cells (setting [3]), 61.4%. Moreover, the median survival with JC breast cancer cells (setting [5]) is 33 days; in the data set with JC breast cancer cells (setting [2]) it was 34 days; with CT26 colon cancer cells (setting [7]), 24 days; in the data set on CT26 colon cancer cells (gemcitabine combination study) it was 35 days. Also, the complete tumor regression is 2 of 10 in the data set on JC breast cancer cells (cisplatin combination study); 1 of 10 and 1 out of 10 with JC breast cancer cells (gemcitabine combination study); 2 of 10 and 2 out of 10 with CT26 colon cancer cells (cisplatin combination study); 3 of 9 with CT26 colon cancer cells (gemcitabine combination study).

B2: M9657: tetravalent bispecific mAb2, Fab binds MSLN, CH3 Fcab binds CD137, human IgG1-LALA; heavy/light chain SEQ ID NOs 2 and 10 (antibody)
heavy: EVQLLESGGGLVQPGGSLRLSCAASGFTFTHTYMSWVRQAPGKGLEWVSAISPTYSTTNYADSVKGRFTISRDNNKNTLYLQMNSLRAEDTAVYYCARYNAYHAALDYWGQGTLVTVSSASTKGPSVFPLAPSSKSTSGGTAALGCLVKDYFPEPVTVSWNSGALTSGVHTFPAVLQSSGLYSLSSVVTVPSSSLGTQTYICNVNHKPSNTKVDKKVEPKSCDKTHTCPPCPAPEAAGGPSVFLFPPKPKDTLMISRTPEVTCVVVDVSHEDPEVKFNWYVDGVEVHNAKTKPREEQYNSTYRVVSVLTVLHQDWLNGKEYKCKVSNKALPAPIEKTISKAKGQPREPQVYTLPPSRDELPYIIPPYNQVSLTCLVKGFYPSDIAVEWESNGQPENNYKTTPPVLDSDGSFFLYSKLTVGADRWLEGNVFSCSVMHEALHNHYTQKSLSLSPG
light: B1 light with P92T, F93V, F95Y, S96P, F97Y
modifications: Heavy chain AA (with LALA); Light chain AA
As for B2, the “cross-reactivity with mouse MSLN” value with mouse MSLN is on record as “lack of cross-reactivity”. The “cross-reactivity with mouse CD137” value in the data set with mouse CD137 is listed as “lack of cross-reactivity”.
